For 115 variants, Kd and yeast surface expression results are on record in the FLAb antibody collection (doi:10.7554/elife.23156).

B1: scFv; the commonest letter at each place (parent)
chain 1: EVKLDETGGGLVQPGRPMKLSCVASGFTFSDYWMNWVRQSPEKGLEWVAQIRNKPYNYETYYSDSVKGRFTISRDDSKSSVYLQMNNLRVEDMGIYYCTGSYYGMDYWGQGTSVTVS
chain 2: DVVMTQTPLSLPVSLGDQASISCRSSQSLVHSNGNTYLRWYLQKPGQSPKVLIYKVSNRFSGVPDRFSGSGSGTDFTLKISRVEAEDLGVYFCSQSTHVPWTFGGGTKLEIK

The variants in the data set “fluorescein” derive from B1. Briefly: Kd (Tite-Seq). To be noted: with fluorescein; format: scFv 4-4-20, heavy + light.
Variants of B1 are the subject of data set [1]. Briefly: yeast surface expression (ratio to wild type); higher = more expressed. Conditions: format: scFv 4-4-20, heavy + light.

Turning to chain 1 S101V Y103V, the equilibrium dissociation constant (Kd) with fluorescein is ≥ 10000 nM. Further, the yeast surface expression in data set [1] was determined as 0.316.
The matching figures for chain 1 T28D V37C: ≤ 0.316 nM and 0.886.
In the same order, the values of chain 1 T28D V37G are 205 nM and 1.16.
The matching figures for chain 1 T28D V37Q: 0.804 nM and 0.726.
In the case of chain 1 T28K N35M V37L, the dissociation constant Kd with fluorescein was ≥ 10000 nM. The yeast surface expression in data set [1] came out at 0.642.
In the same order, the values of chain 1 S101Y Y107P are ≥ 10000 nM and 0.489.
The matching figures for chain 1 S101Y Y107E: ≥ 10000 nM and 0.625.
In the same order, the values of chain 1 T28F S30T are 4.68 nM and 0.857.
chain 1 T28L W33S: in the data set with fluorescein, the equilibrium dissociation constant (Kd) is ≥ 10000 nM. Moreover, the yeast surface expression in data set [1] came out at 0.867.
In the same order, the values of chain 1 T28L W33Y are ≥ 10000 nM and 0.826.
In the same order, the values of chain 1 T28F N35C are ≥ 10000 nM and 0.644.
For the variant chain 1 S101Y Y103N D106L, in the data set with fluorescein, the Kd is ≥ 10000 nM. For the same variant, the yeast surface expression in data set [1] worked out at 0.957.
Consider chain 1 T28M S30A W36F, for which the equilibrium dissociation constant (Kd) with fluorescein came out at 1.58 nM. In addition, the yeast surface expression in data set [1] is 0.845.
In the same order, the values of chain 1 T28L S30C are 1.58 nM and 0.839.
Consider chain 1 T28L S30Y, for which, in the data set with fluorescein, the dissociation constant (Kd) was 1.84 nM. In addition, in data set [1], the yeast surface expression is 0.738.
In the same order, the values of chain 1 T28L S30N are 1.22 nM and 0.861.
With chain 1 T28L S30R, the Kd with fluorescein was 0.891 nM. Also, the yeast surface expression in data set [1] turned out to be 0.99.
In the same order, the values of chain 1 T28L S30A are 1.75 nM and 1.11.
Consider chain 1 T28I W33K, for which, in the data set with fluorescein, the Kd is ≥ 10000 nM. Besides, in data set [1], the yeast surface expression is 0.617.
In the same order, the values of chain 1 T28R D31L W33I are ≥ 10000 nM and 0.441.
The matching figures for chain 1 T28L D31L: 22.1 nM and 0.425.
In the same order, the values of chain 1 T28L D31G are 1.28 nM and 0.717.
Turning to chain 1 T28M V37G, the Kd with fluorescein is ≥ 10000 nM. Moreover, the yeast surface expression in data set [1] turned out to be 0.468.
The matching figures for chain 1 T28M V37K: ≥ 10000 nM and 0.399.
In the case of chain 1 T28P S30N, the dissociation constant Kd in the data set with fluorescein was found to be 0.989 nM. In addition, the yeast surface expression in data set [1] is 1.1.
In the same order, the values of chain 1 T28P S30G are 0.804 nM and 1.25.
The matching figures for chain 1 T28P S30K: ≤ 0.316 nM and 1.02.
The matching figures for chain 1 T28P F29V: 7.08 nM and 0.927.
chain 1 T28A N35Y W36V: the dissociation constant (Kd) with fluorescein was ≥ 10000 nM. Moreover, the yeast surface expression in data set [1] was 0.297.
The matching figures for chain 1 T28I D31H: 1.28 nM and 0.699.
On to chain 1 T28I D31A, for which, in the data set with fluorescein, the Kd stood at 3.09 nM. In addition, the yeast surface expression in data set [1] came to 0.566.
The matching figures for chain 1 T28I D31F: 1.66 nM and 0.526.
The matching figures for chain 1 T28H M34H V37R: ≥ 10000 nM and 2.76.
In the same order, the values of chain 1 T28E M34R are ≥ 10000 nM and 0.531.
Regarding chain 1 T28E M34S, the dissociation constant (Kd) with fluorescein came out at 59.2 nM. The yeast surface expression in data set [1] is 0.742.
In the case of chain 1 S101Y D106K, in the data set with fluorescein, the dissociation constant (Kd) is ≥ 10000 nM. Moreover, the yeast surface expression in data set [1] was found to be 0.117.
With chain 1 S101Y D106E, the Kd with fluorescein is ≥ 10000 nM. Further, the yeast surface expression in data set [1] amounted to 0.627.
The matching figures for chain 1 T28A N35C: ≥ 10000 nM and 0.665.
Take chain 1 T28F W36H: the Kd with fluorescein is ≥ 10000 nM. Further, the yeast surface expression in data set [1] is 0.598.
The matching figures for chain 1 T28F F29H: ≥ 10000 nM and 0.638.
Consider chain 1 T28F F29R, for which the Kd in the data set with fluorescein was ≥ 10000 nM. Further, the yeast surface expression in data set [1] amounted to 0.797.
The matching figures for chain 1 T28N F29R: ≥ 10000 nM and 0.996.
Regarding chain 1 S101W Y103R G104S, the Kd with fluorescein was ≥ 10000 nM. Also, in data set [1], the yeast surface expression came out at 0.468.
In the same order, the values of chain 1 T28A W33S are ≥ 10000 nM and 0.826.
As to chain 1 T28A W33I, the Kd with fluorescein was ≥ 10000 nM. Moreover, the yeast surface expression in data set [1] is 1.15.
With chain 1 T28R S30F, in the data set with fluorescein, the Kd is ≤ 0.316 nM. For the same variant, in data set [1], the yeast surface expression came to 0.739.
The matching figures for chain 1 T28K S30I: 1.35 nM and 0.889.
The matching figures for chain 1 T28K S30H: 1.42 nM and 0.814.
In the same order, the values of chain 1 T28C Y32W are ≥ 10000 nM and 0.802.
For chain 1 T28C Y32P, the Kd with fluorescein was ≥ 10000 nM. Moreover, in data set [1], the yeast surface expression turned out to be 0.707.
In the same order, the values of chain 1 T28A Y32V are ≥ 10000 nM and 1.32.
In the same order, the values of chain 1 T28A Y32T are ≥ 10000 nM and 1.2.
In the same order, the values of chain 1 T28A Y32H are 31.8 nM and 0.717.
For chain 1 T28A Y32K, in the data set with fluorescein, the Kd stood at 3550 nM. In data set [1], the yeast surface expression turned out to be 1.02.
Regarding chain 1 T28G Y32K, the dissociation constant Kd in the data set with fluorescein worked out at 7330 nM. In data set [1], the yeast surface expression is 0.795.
chain 1 T28G Y32M: the dissociation constant Kd with fluorescein was ≥ 10000 nM. Moreover, the yeast surface expression in data set [1] was 1.24.
The matching figures for chain 1 T28M M34N: 403 nM and 0.566.
The matching figures for chain 1 T28M M34C: 35.3 nM and 0.719.
The matching figures for chain 1 S101Y W108V: ≥ 10000 nM and 0.397.
Consider chain 1 T28P W36P, for which the equilibrium dissociation constant (Kd) with fluorescein is ≥ 10000 nM. Further, the yeast surface expression in data set [1] was determined as 0.295.
In the same order, the values of chain 1 T28P W36Y are 4.22 nM and 1.05.
In the same order, the values of chain 1 T28K W33M are ≥ 10000 nM and 1.03.
The matching figures for chain 1 T28K W33D: ≥ 10000 nM and 0.981.
Regarding chain 1 T28K W33S, in the data set with fluorescein, the Kd was ≥ 10000 nM. The yeast surface expression in data set [1] came to 0.995.
The matching figures for chain 1 T28R N35G: 16.2 nM and 1.03.
The matching figures for chain 1 T28I Y32S: 2230 nM and 0.842.
The matching figures for chain 1 T28I Y32C: 2230 nM and 0.946.
For chain 1 T28I Y32T, the dissociation constant (Kd) with fluorescein was ≥ 10000 nM. In addition, the yeast surface expression in data set [1] was 0.869.
In the case of chain 1 T28D D31L, in the data set with fluorescein, the Kd was 0.804 nM. Besides, the yeast surface expression in data set [1] worked out at 0.935.
The matching figures for chain 1 S101Y Y102G: ≥ 10000 nM and 0.796.
The matching figures for chain 1 S101Y Y102P: ≥ 10000 nM and 0.326.
In the same order, the values of chain 1 T28R W36S are ≥ 10000 nM and 0.272.
As for chain 1 T28C M34S, the dissociation constant (Kd) with fluorescein was ≥ 10000 nM. Also, the yeast surface expression in data set [1] amounted to 0.611.
In the same order, the values of chain 1 T28H W36L are ≥ 10000 nM and 0.454.
Turning to chain 1 T28H W36G, the dissociation constant (Kd) with fluorescein is ≥ 10000 nM. Further, in data set [1], the yeast surface expression worked out at 2.76.
In the same order, the values of chain 1 T28L F29N are ≥ 10000 nM and 0.821.
The matching figures for chain 1 T28H Y32I: ≥ 10000 nM and 0.92.
In the same order, the values of chain 1 T28L N35D W36N are ≥ 10000 nM and 0.674.
As to chain 1 T28Q D31A, the Kd with fluorescein turned out to be 5.75 nM. Further, the yeast surface expression in data set [1] came to 0.845.
For the variant chain 1 T28N V37A, in the data set with fluorescein, the dissociation constant Kd amounted to 72.9 nM. Further, the yeast surface expression in data set [1] was 0.941.
In the same order, the values of chain 1 T28N V37Y are ≥ 10000 nM and 1.05.
With chain 1 T28G F29P, the Kd with fluorescein is ≥ 10000 nM. Besides, the yeast surface expression in data set [1] is 0.769.
In the same order, the values of chain 1 T28E V37T are 4.93 nM and 0.693.
Regarding chain 1 T28E V37C, in the data set with fluorescein, the Kd was 0.369 nM. Moreover, in data set [1], the yeast surface expression turned out to be 0.863.
The matching figures for chain 1 T28C W33L: ≥ 10000 nM and 0.742.
Turning to chain 1 S101W D106S, the Kd in the data set with fluorescein is ≥ 10000 nM. Further, the yeast surface expression in data set [1] worked out at 0.516.
In the same order, the values of chain 1 S101W D106I are ≥ 10000 nM and 0.296.
In the same order, the values of chain 1 T28N D31I Y32R are ≥ 10000 nM and 0.627.
In the same order, the values of chain 1 T28F D31A are 50.7 nM and 0.637.
As to chain 1 T28G F29R Y32K, the Kd in the data set with fluorescein was ≥ 10000 nM. Moreover, the yeast surface expression in data set [1] turned out to be 0.507.
Turning to chain 1 T28G, the Kd in the data set with fluorescein was found to be 18.9 nM. Further, the yeast surface expression in data set [1] was 0.994.
In the case of chain 1 T28F, in the data set with fluorescein, the dissociation constant Kd was 4.44 nM. For the same variant, the yeast surface expression in data set [1] stood at 0.842.
As for chain 1 T28N, the Kd in the data set with fluorescein stood at 1.21 nM. Also, the yeast surface expression in data set [1] is 0.895.
In the same order, the values of chain 1 T28E are 1.7 nM and 1.04.
In the same order, the values of chain 1 T28D are 1.84 nM and 1.15.
With chain 1 T28H, the dissociation constant Kd with fluorescein is 1.58 nM. Besides, the yeast surface expression in data set [1] was determined as 0.965.
In the same order, the values of chain 1 T28I are 0.504 nM and 1.07.
In the same order, the values of chain 1 T28L are 1.66 nM and 0.955.
As to chain 1 T28C, the Kd in the data set with fluorescein came to 1.79 nM. Besides, the yeast surface expression in data set [1] is 0.965.
In the same order, the values of chain 1 T28R are 1.38 nM and 0.917.
The matching figures for chain 1 T28P: 0.743 nM and 0.989.
The matching figures for chain 1 T28Q: 0.763 nM and 1.06.
For the variant chain 1 T28A, the dissociation constant (Kd) with fluorescein came out at 1.58 nM. Further, the yeast surface expression in data set [1] was found to be 1.01.
The matching figures for chain 1 T28M: 2.65 nM and 1.02.
The matching figures for chain 1 T28K: 0.988 nM and 1.07.
The matching figures for chain 1 T28G N35C: ≥ 10000 nM and 0.586.
Regarding chain 1 T28I F29L, the dissociation constant (Kd) with fluorescein was 31.8 nM. In data set [1], the yeast surface expression was determined as 0.851.
The matching figures for chain 1 T28I F29R: ≥ 10000 nM and 0.695.
The matching figures for chain 1 T28A F29Y: 1.5 nM and 1.06.
The matching figures for chain 1 T28A F29K: ≥ 10000 nM and 0.821.
chain 1 T28A F29V: the equilibrium dissociation constant (Kd) with fluorescein is 6.38 nM. Further, the yeast surface expression in data set [1] was 1.02.
The matching figures for chain 1 T28N W33Y: ≥ 10000 nM and 1.
In the same order, the values of chain 1 T28N W33M are ≥ 10000 nM and 1.01.
The matching figures for chain 1 S101Y G109K: ≥ 10000 nM and 0.212.
On to chain 1 T28E S30I W33I, for which the Kd with fluorescein is ≥ 10000 nM. For the same variant, the yeast surface expression in data set [1] is 0.628.

What is called Kd is the constant that tells how readily two partners part at equilibrium.
